{
  "source": "paper PMC4620744",
  "about": "(Molecular cell, 2015)",
  "binders": {"B1": {"name": "Pob3-C (domain or fragment)", "chain": "EVQERLQTALGSDSDEEDINMGSAGEDDESVDEDFQVSSDNDADEVAEEFDSDAALSDAEGGSDEERPSKKPKVE"}},
  "biological_target": "full-length H2A-H2B (S. cerevisiae, UniProt P04911 1-132; P02293 1-131)",
  "test": "ITC",
  "data": [
    {"binder": "B1", "values": [
      {"measurement": "Kd", "result": 300, "unit": "nM"},
      {"measurement": "stoichiometry N", "result": 1}
    ]}
  ]
}
